Here are results for one molecule from US20260327578A1, “TRANSGLUTAMINASES AND USES THEREOF” (CURIE CO. INC., priority 2023, published 2026).

For data set [1], the system named is C. albicans (ATCC 10231). Description: MIC determination against C. albicans. Type of data set: cell-based. How it is done: (§1) E. coli (ATCC 8739) and C. albicans (ATCC 10231) were acquired from the American Type Culture Collection (ATCC) (Manassas, VA) and maintained as −80° C. frozen glycerol stocks.
(§2) For MIC determination of yeast cultures, C. albicans (ATCC 10231) was grown overnight (24 hours) in Sabouraud Dextrose broth at 30° C. The following day, the cell density of the saturated cultures was calculated using OD600 and cultures were diluted to 104 to 10^6 CFU/mL in sterile Sabouraud Dextrose broth media to generate the inoculum, and 100 μL of the inoculum was combined with 100 μL of serially diluted Tgase variant at a range of 0.0001-0.05 weight percent. The cultures were grown overnight at 30° C. and growth curves were measured by OD600 on a BioTek® Synergy Plate Reader. All test conditions were performed in triplicate. MIC was determined to be […] (0.005% w/v) against C. albicans for the enzyme described in SEQ ID NO: 4 using OD600.

The subject of data set [2] is N,N-dimethylcasein. Briefly: Productivity: total product formed after 24 hours (protein functionalization assay). The note with it: improvement relative to wild-type Tgase (SEQ ID NO: 2); total product after 24 h. The format is biochemical. The protocol: Enzymatic “productivity” is a measure of product formation or substrate disappearance over time, at a prescribed temperature under specified reaction conditions. It is the measure both the durability and reaction yield of the enzyme variant. In this instance, productivity is defined as total product formed over 24-hours at a constant substrate concentration when the enzyme is the rate limiting factor. The time is defined as 24 hours, which represents approaching or surpassing burnout, denaturation, or self-reaction of the enzyme variant. In other words, variants with higher productivity deliver a higher product yield in 24-hours than variants with lower productivity produce in the same period of time. “Rate” refers to the initial rate for an enzymatic reaction, at a prescribed temperature under specified reaction conditions. The enzyme produces product at an initial rate that is approximately linear for a short period after the start of the reaction. When concentrations of enzyme and substrate are the same across the sample set, initial rates between enzyme variants can be compared. In this instance, the linear range for production of product occurs in one hour. Enzyme variants with faster initial rates deliver a higher product yield in one hour than variants with slower initial rates produce at the same time-period. In some cases, improvements to initial rates also deliver a more productive variant. In some cases, improvements to initial rates result in faster decay of the enzyme variant reducing overall enzymatic productivity. Productivity and rate may be assessed as described in Example 2.
Table 6 depicts variants of Streptomyces mobaraensis Tgase and improvement to productivity and/or rate relative to wild-type Tgase (SEQ ID NO. 2) as determined in Example 3. Numbering of amino acid positions is in reference to the mature S. mobaraensis Tgase sequence depicted in SEQ ID NO. 2. A “−” indicates a reduction in activity. A “+” indicates an improvement between 1.2 and 2-fold. A “++” indicates an improvement between 2 and 5-fold. A “+++” indicates an improvement greater than 5-fold.
To evaluate productivity, total product formed was measured after 24-hours of incubation, using the assay described in Example 4B. The time is defined as 24 hours which represents approaching or surpassing burnout, denaturation, or self-reaction of the enzyme variant.
Protein functionalization by Tgase variants was determined by the fluorogenic labeling of casein using monodansylcadaverine (e.g., a commercially available kit such as the Transglutaminase Fluorogenic Activity Assay Kit, T036, Zedira, Germany). Tgase activity was monitored by measuring fluorescence (excitation wavelength 332 nm; emission wavelength 500 nm) using a BioTek Synergy H1 microplate reader. Transglutaminase-catalyzed covalent coupling (crosslinking) of monodansylcadaverine with N,N-dimethylcasein produces a product that causes a shift in intensity and wavelength of fluorescence of the dansyl group now linked to the casein. The relative transglutaminase activity is shown by increase of fluorescence intensity over time. Enzyme variant loading was optimized based on expression levels, ensuring enzyme was the rate limiting factor. Briefly, cell-free reactions (set up as described in Example 2A) were first diluted 10-fold using phosphate buffer, pH 7.4, and a 5 microliter aliquot was analyzed.

Data set [3] deals with E. coli (ATCC 8739) / C. albicans (ATCC 10231). Briefly: MIC of permeabilizer co-dosants with and without Tgase variant. The format is cell-based. How it is done:
as §1
(§3) The following day, the cell density of the saturated cultures was calculated using OD600 and cultures were diluted to 104 to 10^6 CFU/mL in sterile Mueller Hinton broth to generate the inoculum, and 100 μL of the inoculum was combined with 100 μL of serially diluted Tgase variant A3 (SEQ ID NO: 4) at a range of 0.0001-0.05 weight percent. Growth curves were measured by OD600 on a BioTek® Synergy Plate Reader. All test conditions were performed in triplicate. MIC was determined to be […] (0.005% w/v) against E. coli for the enzyme described in SEQ ID NO: 4 using OD600.
as §2
Aseptilase activities of Tgase variant A3 (SEQ ID NO: 4) in combination with each of the three permeabilizer co-dosants, polymyxin B, chlorhexidine, and a 10000:4000:1 mixture by weight of sodium hexametaphosphate, phytic acid and chlorhexidine, were tested. […] The experiments were performed as described in Example 5. The co-dosants were added into Tgase variant A3 (SEQ ID NO: 4) solutions at concentrations of 0.125 g/L, 0.05 g/L, and 350 mM, respectively. The results are shown in Table 12 with Tgase concentrations reported within the table at the best MIC.

The subject of data set [4] is E. coli (ATCC 8739). Description: MIC determination against E. coli. Type of data set: cell-based. The protocol: as §1, §3
The mark [5] stands for this setting: OD600, printed in brackets after the ppm value.

B1: A3: Tgase variant S2P Q50S Q74A K91H Q124L K151R K152R N282M G283A relative to SEQ ID NO: 2 (protein, UniProt P81453 77-407, looked up, variant S2P Q50S Q74A K91H Q124L K151R K152R N282M G283A)
Protein-glutamine …: DPDDRVTPPAEPLDRMPDPYRPSYGRAETVVNNYIRKWQQVYSHRDGRKSQMTEEQREWLSYGCVGVTWVNSGAYPTNRLAFASFDEDRFHNELKNGRPRSGETRAEFEGRVAKESFDEEKGFLRAREVASVMNRALENAHDESAYLDNLRRELANGNDALRNEDARSPFYSALRNTPSFKERNGGNHDPSRMKAVIYSKHFWSGQDRSSSADKRKYGDPDAFRPAPGTGLVDMSRDRNIPRSPTSPGEGFVNFDYGWFGAQTEADADKTVWTHGNHYHAPMASLGAMHVYESKFRNWSEGYSDFDRGAYVITFIPKSWNTAPDKVKQGWP
In the case of B1, the MIC in data set [1] (OD600) was determined as 100 ppm; in data set [1] (setting [5]), 0.005 % w/v; in data set [4] (OD600) it was 200 ppm; in data set [4] (setting [5]) it was 0.005 % w/v. The Productivity result in data set [2] was “+ (an improvement between 1.2 and 2-fold)”. Besides, the “Aseptilase activity in combination with permeabilizers” value in data set [3] (co-dosed with polymyxin B, chlorhexidine, or hexametaphosphate/phytic acid/chlorhexidine) is “further improved by co-dosing with cell membrane permeabilizers”. The “concentration of Tgase at the best MIC” value in data set [3] (in combination with 10000:4000:1 hexametaphosphate, phytic acid and chlorhexidine) is reported as 200 ppm; in data set [3] (in combination with Chlorhexidine), 200 ppm; in data set [3] (in combination with Polymyxin B), 12.5 ppm.
